{"source": "patent US10876098B2", "about": "“Polynucleotide, host cell and a method to recombinantly produce the protein encoded by said polynucleotide having peroxygenative activity” (CONSEJO SUPERIOR DE INVESTIGACIONES CIENTIFICAS (CSIC), priority 2015, dated 2020)", "molecules": {"B1": {"name": "PaDa-I-W24F: W24F variant obtained from the PaDa-I mutant, SEQ ID NO: 30 (protein)", "chain": "MKYFPLFPTLVYAVGVVAFPDYASLAGLSQQELDAIIPTLEAREPGLPPGPLENSSAKLVNDEAHPFKPLRPGDIRGPCPGLNTLASHGYLPRNGVATPAQIINAVQEGFNFDNQAAIFATYAAHLVDGNLITDLLSIGRKTRLTGPDPPPPASVGGLNEHGTFEGDASMTRGDAFFGNNHDFNETLFEQLVDYSNRFGGGKYNLTVAGELRFKRIQDSIATNPNFSFVDFRFFTAYGETTFPANLFVDGRRDDGQLDMDAARSFFQFSRMPDDFFRAPSPRSGTGVEVVVQAHPMQPGRNVGKINSYTVDPTSSDFSTPCLMYEKFVNITVKSLYPNPTVQLRKALNTNLDFLFQGVAAGCTQVFPYGRD"}, "B2": {"name": "JaWa-W24F: W24F variant obtained from the JaWa mutant, SEQ ID NO: 32 (protein)", "chain": "MKYFPLFPTLVYAVGVVAFPDYASLAGLSQQELDAIIPTLEAREPGLPPGPLENSSAKLVNDEAHPFKPLRPGDIRGPCPGLNTLASHGYLPRNGVATPAQIINAVQEGFNFDNQAAIFATYAAHLVDGNLITDLLSIGRKTRLTGPDPPPPASVGGLNEHGTFEGDASMTRGDAFFGNNHDFNETLFEQLVDYSNRFGGGKYNLTVAGELRFKRIQDSIATNPNFSFVDFRFFTAYGETTFPANLFVDGRRDDGQLDMDAARSFFQFSRMPDDFFRAPSPRSDTGVEVVVQAHPMQPGKNVGKINSYTVDPTSSDFSTPCLMYEKFVNITVKSLYPNPTVQLRKALNTNLDFLFQGVAAGCTQVFPYGRD"}, "B3": {"name": "AaeUPO1: unspecific peroxygenase UPO (E.C. 1.11.2.1) of Agrocybe aegerita, wild type, SEQ ID NO: 2 / 4 (protein, listed as Agrocybe aegerita)", "chain": "MKYFPLFPTLVYAVGVVAFPDYASLAGLSQQELDAIIPTLEAREPGLPPGPLENSSAKLVNDEAHPWKPLRPGDIRGPCPGLNTLASHGYLPRNGVATPVQIINAVQEGLNFDNQAAVFATYAAHLVDGNLITDLLSIGRKTRLTGPDPPPPASVGGLNEHGTFEGDASMTRGDAFFGNNHDFNETLFEQLVDYSNRFGGGKYNLTVAGELRFKRIQDSIATNPNFSFVDFRFFTAYGETTFPANLFVDGRRDDGQLDMDAARSFFQFSRMPDDFFRAPSPRSGTGVEVVIQAHPMQPGRNVGKINSYTVDPTSSDFSTPCLMYEKFVNITVKSLYPNPTVQLRKALNTNLDFFFQGVAAGCTQVFPYGRD"}}, "key": {"[1]": {"target": "T1, Agrocybe aegerita peroxygenase AaeUPO1 variant JaWa (PaDa-I + G241D, R257K: V57A, L67F, V75I, G241D, I248V, R257K, F311L), SEQ ID NO: 24 (Cyclocybe aegerita, UniProt B9W4V6, F354L/G284D/I291V/L110F/R300K/V100A/V118I)", "T1 sequence (B9W4V6 44-371 V100A/L110F/V118I/G284D/I291V/R300K/F354L)": "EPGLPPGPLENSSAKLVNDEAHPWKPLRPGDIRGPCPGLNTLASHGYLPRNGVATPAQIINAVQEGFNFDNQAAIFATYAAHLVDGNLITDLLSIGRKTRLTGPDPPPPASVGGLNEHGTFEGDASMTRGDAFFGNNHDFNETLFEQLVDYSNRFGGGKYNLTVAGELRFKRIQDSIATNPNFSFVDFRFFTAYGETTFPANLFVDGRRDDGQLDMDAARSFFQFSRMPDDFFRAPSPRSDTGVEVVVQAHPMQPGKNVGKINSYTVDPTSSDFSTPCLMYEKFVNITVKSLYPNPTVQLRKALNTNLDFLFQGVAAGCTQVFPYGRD", "assay": "Kinetic constants, JaWa variant", "quoted_text": "In order to calculate the values of Km and kcat, values of Vmax were represented at substrate concentrations and the hyperbole function was adjusted (using SigmaPlot 10.0, wherein the parameter a is equal to kcat and the parameter b, to Km).\nAdditionally, the kinetic values of the two variants were determined using substrates of both peroxygenase and peroxidase activity (Table 2), as described in the section on materials and methods."}, "[2]": {"settings": "cited from earlier work"}, "[3]": {"assay": "Activity of W24F variants on peroxygenase substrates, flask culture supernatants", "type": "biochemical", "settings": "relative to respective parental", "source_text": "(§1) FIG. 5 W24F variants obtained by means of directed mutagenesis. A) Model built on the crystal structure of the AaeUPO1 enzyme (PDB access number: 2YOR), comprising the mutations of the JaWa variant as well as the W24F modification with respect to wild AaeUPO1. The model is shown without a surface, with a transparent surface and with an opaque surface, showing position W24. B) Activity of the W24F variants using different substrates with respect to their respective parentals, relativised to the PaDa-I activity. The experiments were carried out using 100 mL flask culture supernatants."}, "[4]": {"assay": "Activity of W24F variants on peroxidase substrates, flask culture supernatants", "type": "biochemical", "settings": "all the tested substrates, relative to respective parental", "source_text": "as §1"}, "Optimum pH for ABTS": {"assay": "Optimum pH for ABTS", "type": "biochemical"}, "[5]": {"assay": "Total turnover number (TTN) for synthesis of 5′-hydroxypropranolol from propranolol", "type": "biochemical", "settings": "0.03 μM enzyme, propranolol, 2 mM H2O2 added every 10 minutes", "method": "FIG. 15 Calculation of the total turnover number (TTN) of AaeUPO and SoLo.\n(§2) The reactions were analysed by means of chromatography in reverse phase (HPLC). The equipment was composed of a tertiary pump (Varian-Agilent Technologies, USA) coupled to an autosampler (Merck Millipore, MA, USA); for the separation, a Zorbax Eclipse plus C18 column (15 cm×4.6 cm) at 40° C. was used and the detection was performed using a photodiode detector (PDA) (Varian, Agilent Technologies, USA). The mobile phase selected was a gradient from 10% methanol and 90% ddH2O (in both cases with 0.1% of acetic acid) up to 90% methanol and 10% ddH2O at a flow rate of 0.8 mL/min. The reaction was quantified at 280 nm (based on HPLC standards). […] The standard deviations were less than 5% in all cases."}, "[6]": {"assay": "Optimum pH for naphthalene", "type": "biochemical"}, "Optimum pH for DMP": {"assay": "Optimum pH for DMP", "type": "biochemical"}, "[7]": {"assay": "Isoelectric point by two-dimensional electrophoresis", "type": "physicochemical", "method": "The analyses were performed using an Autoflex III MALDI-TOF-TOF unit with smartbeam laser (Bruker Daltonics). The samples were evaluated in positive mode. The method was calibrated using BSA with standard, thereby covering a range of 15,000 to 70,000 Da. In order to determine the isoelectric point of the UPO variants, 8 μg of pure enzyme were subjected to two-dimensional electrophoresis. These experiments were carried out at the Proteomic and Genomic Service of the Biological Research Centre (CIB-CSIC, Spain)."}, "[8]": {"assay": "Turnover with 5′-hydroxypropranolol as substrate, HPLC", "type": "biochemical", "settings": "0.03 μM enzyme, 0.4 mM 5′-hydroxypropranolol, 2 mM H2O2, absence of ascorbic acid", "method": "FIG. 14 Turnover rates of AaeUPO, JaWa and SoLo. […] The disappearance of the product 5′-hydroxypropranolol can be observed due to the formation of its corresponding quinone by means of the peroxidase activity of the enzyme.\nas §2"}}, "data": [{"molecule": "c1ccc2ccccc2c1", "note": "[Naphthalene, naphthalene]", "values": [{"measurement": "decrease in Km", "setting": "[1]; JaWa vs PaDa-I, naphthalene", "result": 3, "unit": "times"}]}, {"molecule": "c1ccc2ccccc2c1", "note": "[naphthalene]", "values": [{"measurement": "solubility of the naphthalene in water", "setting": "[2]", "result": 31.7, "unit": "µg/mL"}]}, {"molecule": "CC(C)NCC(O)COc1cccc2c(O)cccc12", "note": "(stereo not drawn) [5′-hydroxypropranolol]", "values": [{"measurement": "increase in kcat (up to)", "setting": "[1]; summary of advantages, variant not named, matches JaWa vs PaDa-I", "result": "up to 3.6 fold"}]}, {"molecule": "OO", "note": "[H2O2, hydrogen peroxide]", "values": [{"measurement": "Km", "setting": "[1]; H2O2, benzyl alcohol as substrate at saturation, pH 7.0", "result": 1250, "unit": "µM"}]}, {"molecule": "B1", "values": [{"measurement": "reduction in the activity on naphthalene and NBD by the W24F mutation", "setting": "[3]", "result": 50, "unit": "%"}, {"measurement": "reduction of peroxidase activity by the W24F mutation", "setting": "[4]", "result": 60, "unit": "%"}]}, {"molecule": "B2", "values": [{"measurement": "reduction in the activity on naphthalene and NBD by the W24F mutation", "setting": "[3]", "result": 50, "unit": "%"}, {"measurement": "reduction of peroxidase activity by the W24F mutation", "setting": "[4]", "result": 60, "unit": "%"}]}, {"molecule": "B3", "values": [{"measurement": "Optimum pH for ABTS", "setting": "Optimum pH for ABTS", "result": 4.0}, {"measurement": "TTNs, With ascorbic acid", "setting": "[5]; 4 mM ascorbic acid", "result": "14,000"}, {"measurement": "TTNs, Without ascorbic acid", "setting": "[5]; absence of ascorbic acid", "result": "3,000"}, {"measurement": "Optimum pH for naphthalene", "setting": "[6]", "result": 6.5}, {"measurement": "Optimum pH for DMP", "setting": "Optimum pH for DMP", "result": 7.0}, {"measurement": "pI", "setting": "[7]", "result": "4.9-5.7"}, {"measurement": "5′-hydroxypropranolol maintained without oxidising", "setting": "[8]", "result": "oxidise practically the entire product"}]}]}
